Experimental data reported in PMC3207120.

Legend:
Details in all cases: 100 mM Tris-HCl pH 7, 15 mM MgCl2, 37 °C
purified protein [1] = substrate: O=[N+]([O-])c1ccc(OP(=O)(O)O)cc1; assay: purified protein
purified protein [2] = substrate: O=C(CO)[C@@H](O)[C@H](O)COP(=O)(O)O; assay: purified protein
purified protein [3] = substrate: O=P(O)(O)O[C@H]1O[C@H](CO)[C@H](O)[C@H](O)[C@H]1O; assay: purified protein
steady-state kinetics = substrate: O=P(O)(O)OC[C@H]1OC(O)[C@H](O)[C@@H](O)[C@@H]1O; assay: steady-state kinetics; type: biochemical, Bacillus subtilis

B1: AraL (recombinant AraL-His6, pLG11) (Bacillus subtilis subsp. subtilis str. 168; V11M) (protein)
chain: MSPAGILIDLDGTVFRGNELIEGAREAIKTLRRMGKKIVFLSNRGNISRAMCRKKLLGAGIETDVNDIVLSSSVTAAFLKKHYRFSKVWVLGEQGLVDELRLAGVQNASEPKEADWLVISLHETLTYDDLNQAFQAAAGGARIIATNKDRSFPNEDGNAIDVAGMIGAIETSAQAKTELVVGKPSWLMAEAACTAMGLSAHECMIIGDSIESDIAMGKLYGMKSALVLTGSAKQGEQRLYTPDYVLDSIKDVTKLAEEGILI
Km (purified protein [1]): 50.00 ± 23.32 mM
kcat (purified protein [1]): 0.012 ± 0.0006 s⁻¹
kcat/Km (purified protein [1]): 0.24 M⁻¹ s⁻¹
Km (purified protein [2]): 29.14 ± 4.87 mM
kcat (purified protein [2]): 2.75 ± 0.26 s⁻¹
kcat/Km (purified protein [2]): 94.3 M⁻¹ s⁻¹
Km (purified protein [3]): 40.74 ± 6.03 mM
kcat (purified protein [3]): 4.28 ± 0.4 s⁻¹
kcat/Km (purified protein [3]): 102 M⁻¹ s⁻¹
Km (steady-state kinetics): 24.96 ± 4.08 mM
kcat (steady-state kinetics): 2.49 ± 0.26 s⁻¹
kcat/Km (steady-state kinetics): 99.8 M⁻¹ s⁻¹
